Measured values: the supplement of paper PMC6757056
± gives the standard deviation of the averaged measurements.

B1: library; a variant is named by its letters at N, in order (parent)
chain: GCUGUCACCGGUGCUUGGUACGUUAUAUUCAGCCGGUCUGAUGAGUCUNNNNNNAGACGAAACAGC

Assays:
(6R,S)-folinic acid [1] = variants of: B1; assay: normalized RNA/DNA level without ligand (relative to sTRSVctl = 100) (log10 (% of sTRSVctl)); HEK293T overexpressing SLC46A1; higher = less ribozyme self-cleavage, higher mRNA level; conditions: without (6R,S)-folinic acid; ligand present: no
Outline: (§1)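 Ribozyme switch library plasmids linked to reporters were introduced into HEK293T cells at 4 µg per 6-well well, with ligand, if any, added 1 h before. Total RNA was extracted with EDTA 72 h later, reverse-transcribed, amplified, barcoded and sequenced. RNA level was computed from RNA over DNA reads relative to a spiked-in non-cleaving sequence or the top sequences, then scaled and log-transformed. The top set was 25 sequences, values were ×100 and log10, and the cutoff was ≥100 DNA reads.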

(6R,S)-folinic acid [2] = variants of: B1; assay: normalized RNA/DNA level with ligand (relative to sTRSVctl = 100) (log10 (% of sTRSVctl)); HEK293T overexpressing SLC46A1; ligand concentration (+) RNA-Seq: 6 mM; higher = less ribozyme self-cleavage, higher mRNA level; conditions: with (6R,S)-folinic acid; ligand present: yes
Outline: as §1

Variant	normalized RNA/DNA level without ligand (log10) ((6R,S)-folinic acid [1])	normalized RNA/DNA level with ligand (log10) ((6R,S)-folinic acid [2])
CGCUGG	1.974 ± 0.0042	2.016 ± 0.0049
GGGAUC	2.037 ± 0.0086	2.04 ± 0.027
GUUGCC	2.0274 ± 0.0015	1.998 ± 0.018
AACUUU	2.01 ± 0.022	2.01 ± 0.022
CUAUCG	2.037 ± 0.015	2.02 ± 0.043
CCGGCU	2.08 ± 0.029	2.051 ± 0.013
CCGUGC	2.03 ± 0.048	1.99 ± 0.041
CCGUGU	2.039 ± 0.0037	2.048 ± 0.0091
UUCGUA	1.96 ± 0.025	1.97 ± 0.02
CCCAAU	2.023 ± 0.015	2.03 ± 0.028
AGCGGA	2.024 ± 0.0064	2.024 ± 0.01
CGGCCG	2.038 ± 0.015	2.03 ± 0.038
CAGCCC	2.077 ± 0.02	2.027 ± 0.013
GCGCCA	2.08 ± 0.023	2.03 ± 0.03
GCGCCC	2.07 ± 0.023	2.04 ± 0.036
UCCCCA	2.052 ± 0.0085	2.04 ± 0.033
AGGCGC	2.057 ± 0.015	2.03 ± 0.026
UGUGAU	1.903 ± 0.016	2 ± 0.027
GACAAG	1.9442 ± 0.00015	2.008 ± 0.02
GAUUUG	1.95 ± 0.023	2.03 ± 0.047
UUCUAU	1.994 ± 0.0097	2.05 ± 0.04
GGGGGG	2.045 ± 0.019	2.04 ± 0.061
GGGGGU	2.037 ± 0.0098	2.05 ± 0.052

Variant	normalized RNA/DNA level without ligand (log10) ((6R,S)-folinic acid [1])	normalized RNA/DNA level with ligand (log10) ((6R,S)-folinic acid [2])
GGCCGA	2.081 ± 0.0077	2.05 ± 0.037
CGACUG	2.028 ± 0.0025	2.014 ± 0.011
CUAGAC	1.98 ± 0.017	1.986 ± 0.015
CAAGAC	2.026 ± 0.0013	2.03 ± 0.038
UUAGUA	1.9501 ± 0.0015	1.98 ± 0.026
AGUUUA	1.9996 ± 0.00042	2.03 ± 0.037
CAGUUG	2.041 ± 0.0043	2.06 ± 0.013
CAGUAC	1.96 ± 0.036	1.97 ± 0.04
UUCAGA	1.975 ± 0.011	2 ± 0.021
UUCAGC	2.063 ± 0.016	2.048 ± 0.014
UGAUCA	1.99 ± 0.021	2 ± 0.038
ACCAAC	2.025 ± 0.012	2.02 ± 0.029
GCAGAG	1.808 ± 0.01	2 ± 0.074
GCGAUC	2.039 ± 0.014	2.003 ± 0.015
CUCUCU	2.025 ± 0.017	2.019 ± 0.0069
ACCCUG	2.006 ± 0.013	2.032 ± 0.013
CGGAUC	2.085 ± 0.011	2.034 ± 0.003
CGGAUU	2.031 ± 0.015	2.02 ± 0.045
UUGAGC	2.006 ± 0.005	2.05 ± 0.049
GCACGC	2.025 ± 0.0075	2.024 ± 0.02
AGCACG	1.99 ± 0.033	2.025 ± 0.01
GCGGCU	2.0832 ± 0.0008	2.05 ± 0.031
GUUAGA	2 ± 0.02	2.021 ± 0.0089

Variant	normalized RNA/DNA level without ligand (log10) ((6R,S)-folinic acid [1])	normalized RNA/DNA level with ligand (log10) ((6R,S)-folinic acid [2])
AUACCU	2.0169 ± 0.00086	2.025 ± 0.011
AAGGGC	2.0351 ± 4.5e-05	2.05 ± 0.045
GUAGUC	2.038 ± 0.0078	2.03 ± 0.032
AGGGUG	1.952 ± 0.0024	2.04 ± 0.028
GCGUUG	2.009 ± 0.0022	2.05 ± 0.041
AAUGGA	1.925 ± 0.0083	1.99 ± 0.033
GCCGCU	2.048 ± 0.0044	2.04 ± 0.044
AACGGG	1.892 ± 0.0076	2.01 ± 0.032
UUACUC	2.048 ± 0.0074	2.03 ± 0.027
ACUCAC	2.058 ± 0.007	2.045 ± 0.0072
UCUACC	2.0547 ± 0.001	2.054 ± 0.018
AAUUAU	1.983 ± 0.013	2.03 ± 0.038
UAUCUG	1.878 ± 0.017	2 ± 0.023
CUCCGA	2.06 ± 0.024	2.01 ± 0.071
GGCUGG	2.064 ± 0.0042	2.05 ± 0.046
CCAGUU	2.019 ± 0.013	2.02 ± 0.05
GGAUGG	1.948 ± 0.012	2.02 ± 0.033
UCUGCC	1.981 ± 0.0055	2.02 ± 0.025
ACAUGC	2.014 ± 0.014	2.04 ± 0.07
AUCAUU	2.05 ± 0.024	2.03 ± 0.023
AGCCAC	2.016 ± 0.003	2 ± 0.037
UCAUGA	2.01 ± 0.028	2.053 ± 0.019
GCCGGA	2.07 ± 0.036	2.02 ± 0.031

Variant	normalized RNA/DNA level without ligand (log10) ((6R,S)-folinic acid [1])	normalized RNA/DNA level with ligand (log10) ((6R,S)-folinic acid [2])
UGUCGA	1.904 ± 0.0056	1.994 ± 0.013
CUUCAA	2.023 ± 0.0088	2.05 ± 0.042
AUUACA	1.992 ± 0.017	2.01 ± 0.059
CGUCGA	2.012 ± 0.0023	2.019 ± 0.019
CCACAU	1.961 ± 0.004	1.98 ± 0.072
GGCGAG	2.05 ± 0.017	2.018 ± 0.018
UCGCAA	1.973 ± 0.017	1.998 ± 0.018
UCGCAC	2.04 ± 0.025	2.03 ± 0.048
GUGGAG	1.86 ± 0.027	2 ± 0.041
CCGAUA	1.996 ± 0.0089	2.011 ± 0.018
GGGUGG	2.056 ± 0.0092	2.04 ± 0.043
AACUAU	1.975 ± 0.0066	2 ± 0.037
UUGCUC	2.046 ± 0.01	2.02 ± 0.052
CCGAGG	2.011 ± 0.006	2.01 ± 0.028
ACGGAG	1.839 ± 0.0062	2.029 ± 0.014
ACGGAC	2.018 ± 0.015	2.01 ± 0.03
AUCAGG	1.96 ± 0.023	2.04 ± 0.041
CUGUCA	2.033 ± 0.011	2.07 ± 0.039
CUGUCU	2.037 ± 0.0082	2.04 ± 0.034
CUGUCC	2.059 ± 0.0043	2.043 ± 0.017
CACAAG	1.961 ± 0.006	2.013 ± 0.02
UGGUUU	1.95 ± 0.021	1.97 ± 0.026
CAAGUA	1.9916 ± 0.0019	2.03 ± 0.045

Variant	normalized RNA/DNA level without ligand (log10) ((6R,S)-folinic acid [1])	normalized RNA/DNA level with ligand (log10) ((6R,S)-folinic acid [2])
GCAAAG	1.95 ± 0.0068	2.018 ± 0.012
GCAAAU	2 ± 0.022	2.03 ± 0.03
GCCCAA	2.03 ± 0.014	2.02 ± 0.042
CGAUGU	1.98 ± 0.0073	1.99 ± 0.047
UUCAUC	2.01 ± 0.036	1.93 ± 0.043
UUGCAU	1.975 ± 0.0029	2.01 ± 0.043
CCACGA	2.011 ± 0.0078	2.019 ± 0.009
GCGUCG	2.042 ± 0.0035	2.07 ± 0.035
GGCGGG	2.1126 ± 0.00086	2.08 ± 0.028
GGCGGU	2.06 ± 0.026	2.03 ± 0.037
AAGCCG	1.988 ± 0.0067	2.01 ± 0.041
CCUUGC	2.004 ± 0.0087	2.05 ± 0.039
AACCUC	2.1092 ± 0.0019	2.07 ± 0.052
UUUAGU	1.957 ± 0.0051	1.99 ± 0.015
GCAGCA	2.048 ± 0.018	2.06 ± 0.037
UCACUU	2.021 ± 0.0092	2.04 ± 0.018
GUUAAG	1.96 ± 0.006	2.02 ± 0.027
UAGGAG	1.63 ± 0.024	1.91 ± 0.033
ACCUGU	2.01 ± 0.025	2 ± 0.024
AACCGA	1.998 ± 0.014	1.99 ± 0.051
GCCUGA	2.036 ± 0.0063	2.07 ± 0.028
UGAUGC	1.954 ± 0.013	1.998 ± 0.01
AAGAAU	1.95 ± 0.0044	2.011 ± 0.014
